Measured values taken from publication PMC6661505.

Key:
Assay in all cases: bead flow cytometry
mouse FGFR3c-Fc = mouse FGFR3c-Fc (mouse, UniProt Q61851 21-369)
human FGFR3b-Fc = human FGFR3b-Fc (human, UniProt P22607-2 23-377)
human FGFR3c-Fc = human FGFR3c-Fc (human, UniProt P22607 23-375)
mouse FGFR3b-Fc = mouse FGFR3b-Fc (mouse, UniProt Q61851-2 21-371)
mouse FGFR2c-Fc = mouse FGFR2c-Fc (mouse, UniProt P21803 22-377)
human FGFR1c-His = human FGFR1c-His (human, UniProt P11362 22-376)
mouse FGFR1c-Fc = mouse FGFR1c-Fc (mouse, UniProt P16092 22-376)
mouse FGFR1c-Fc, sequence (P16092 22-376): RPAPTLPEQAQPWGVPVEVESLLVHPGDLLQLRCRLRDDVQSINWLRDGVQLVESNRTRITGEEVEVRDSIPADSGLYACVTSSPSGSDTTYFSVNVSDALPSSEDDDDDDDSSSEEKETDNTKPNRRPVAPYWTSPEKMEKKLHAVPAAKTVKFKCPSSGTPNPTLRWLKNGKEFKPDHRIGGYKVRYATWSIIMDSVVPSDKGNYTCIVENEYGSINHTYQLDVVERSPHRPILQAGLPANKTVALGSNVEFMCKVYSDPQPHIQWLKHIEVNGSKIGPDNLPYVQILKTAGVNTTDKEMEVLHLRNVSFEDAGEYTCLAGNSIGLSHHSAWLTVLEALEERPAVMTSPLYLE

human FGFR2c-His = human FGFR2c-His (human, UniProt P21802 22-377)
human FGFR2c-His, sequence (P21802 22-377): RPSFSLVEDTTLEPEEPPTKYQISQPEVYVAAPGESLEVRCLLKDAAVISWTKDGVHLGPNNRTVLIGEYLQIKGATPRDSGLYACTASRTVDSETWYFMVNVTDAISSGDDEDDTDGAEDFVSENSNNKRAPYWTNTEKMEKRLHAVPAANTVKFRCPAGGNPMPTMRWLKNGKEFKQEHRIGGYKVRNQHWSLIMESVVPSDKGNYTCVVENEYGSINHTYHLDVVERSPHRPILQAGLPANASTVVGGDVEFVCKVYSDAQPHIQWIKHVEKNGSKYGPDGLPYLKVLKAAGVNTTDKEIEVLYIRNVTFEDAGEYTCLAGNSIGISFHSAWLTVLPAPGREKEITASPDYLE

mouse FGFR2c-Fc, sequence (P21803 22-377): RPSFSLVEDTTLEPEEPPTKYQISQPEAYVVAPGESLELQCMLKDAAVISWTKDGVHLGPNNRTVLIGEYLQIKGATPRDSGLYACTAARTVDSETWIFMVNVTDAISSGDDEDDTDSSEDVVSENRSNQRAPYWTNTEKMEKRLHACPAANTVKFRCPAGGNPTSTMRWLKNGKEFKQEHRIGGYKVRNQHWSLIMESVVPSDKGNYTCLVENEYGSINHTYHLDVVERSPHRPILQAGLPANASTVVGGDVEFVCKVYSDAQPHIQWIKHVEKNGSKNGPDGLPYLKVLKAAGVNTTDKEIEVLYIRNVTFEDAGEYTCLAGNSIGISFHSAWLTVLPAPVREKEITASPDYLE
human FGFR1c-His, sequence (P11362 22-376): as the sequence (P16092 22-376) above, with A3S, V15A, L22F, V53A, R68Q, I71V, R128M counted along it

B1: iR3 (structured_RNA)
RNA: GCCGAUGGUUUUGUGGCCGUUUGAGGUUCCUACGGC
modifications: 2'-fluoro C and U; 3' inverted dT (not in string)
With B1 the Kd (mouse FGFR3c-Fc) was 36.6 ± 7.1 nM, the Kd (human FGFR3b-Fc) was about 48 nM and the Kd (human FGFR3c-Fc) was 55.5 ± 8.4 nM. For the same binder, the Kd (mouse FGFR3b-Fc) was about 62 nM, the binding result (mouse FGFR2c-Fc) was “no binding” and the binding result (human FGFR1c-His) was “no binding”. B1: no binding (mouse FGFR1c-Fc); no binding (human FGFR2c-His).
